Experiments:
[1] = tested on: sympathetic neurons; test: Lytic effects of added protein on sympathetic neurons; assay type: cell-based; conditions: coaddition of control protein with 10 μM Bax
Procedure: The effect of soluble recombinant Bax and Bcl-2 on the integrity of sympathetic neurons and sheep erythrocytes was tested. Ten μM Bax protein was added to serum-free medium of sympathetic neurons. […] (see FIG. 7B).

[2] = molecular target: T1, Bax (Homo sapiens, UniProt Q07812); test: Inhibition of Bax-induced release of carboxyfluorescein from liposomes; assay type: biochemical; conditions: control protein preincubated with liposomes before Bax 70 nm
T1 construct: GST (pGEX2T, thrombin site) (N, cleaved yes); made in house; host or cells: E. coli PR745
Procedure: To determine whether Bax was a pore-forming protein, a study was undertaken to determine whether Bax could trigger the release of liposome-encapsulated carboxyfluorescein. […] The liposomes were dialyzed for 24 hours against PBS and diluted to 8 ml. For analysis at acidic pH, fluorescence of released dye was measured after adjustment of pH to 7.5 by addition of 1 M Tris-HCl pH 7.5.
In each test 20 μl of liposomes containing 20 mM carboxyfluorescein was diluted in 1 ml of PBS (pH 7.5) and 5 μl of purified protein was added at the time indicated by the arrow. Incubation was performed at room temperature. Final Bax concentrations are indicated for each curve (see FIG. 8A). Bcl-2 was tested at 70 nM. Each curve of FIG. 8A was normalized by subtraction of the initial fluorescence value obtained at time 0.
Liposomes (20 μl in 1 ml PBS) were first incubated (15 min at room temperature) with Bcl-2 or with a control protein (stathmin) before addition of Bax (70 nm) to the liposome solution.
After addition of the compound, 80 nM Bax was added to the liposome suspension and the fluorescence measured with a spectrofluorimeter.

T1 sequence (Q07812 with tags, fused parts or gaps limits assumed): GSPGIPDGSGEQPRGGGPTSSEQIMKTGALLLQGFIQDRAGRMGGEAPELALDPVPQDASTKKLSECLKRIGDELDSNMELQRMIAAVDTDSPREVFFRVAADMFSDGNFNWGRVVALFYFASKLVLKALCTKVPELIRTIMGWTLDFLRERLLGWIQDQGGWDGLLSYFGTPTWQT

Molecule | effect on Bax-induced neuronal lysis upon coaddition [1] | effect on Bax function (carboxyfluorescein efflux) [2]
ERK2: control protein [reference compound] | no effect | 
stathmin: unrelated control protein (protein, UniProt P16949 2-149, looked up) Stathmin: ASSDIQVKELEKRASGQAFELILSPRSKESVPEFPLSPPKKKDLSLEEIQKKLEAAEERRKSHEAEVLKQLAEKREHEKEVLQKAIEENNNFSKMAEEKLTHKMEANKENREAQMAAKLERLREKDKHIEEVRKNKESKDPADETEAD | no effect | no adverse effect
